Laboratory results: US20220153839A1
Each block holds one binder with its values, some of them ahead of it.

Target: ROR1 (reagent by which anti-ROR1 recognition of CAR-T cells was read; form not stated)
Experiment: FACS of EGFR+ transduced T cells

Chain of ROR1 (reagent by which anti-ROR1 recognition of CAR-T cells was read; form not stated) (Q01973 24-403): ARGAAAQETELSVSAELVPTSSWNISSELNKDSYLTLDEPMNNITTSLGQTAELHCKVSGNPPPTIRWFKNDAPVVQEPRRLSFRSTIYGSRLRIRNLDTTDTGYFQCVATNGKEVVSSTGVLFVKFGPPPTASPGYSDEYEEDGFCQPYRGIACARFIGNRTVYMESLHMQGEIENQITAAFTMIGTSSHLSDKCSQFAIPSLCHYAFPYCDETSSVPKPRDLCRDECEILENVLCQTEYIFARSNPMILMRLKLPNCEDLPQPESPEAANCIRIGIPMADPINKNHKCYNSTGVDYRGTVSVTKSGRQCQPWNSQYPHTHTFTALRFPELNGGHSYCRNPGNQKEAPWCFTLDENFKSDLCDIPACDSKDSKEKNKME

percent of CAR-T cells with anti-ROR1 recognition: > 90%
B1: XBR1-402 chimeric antigen receptor with short spacer, on CD8+ T cells (protein, part only; not given: scFv linker, spacer, signaling parts, not shown: large carriers)
scFv, part: QEQQKESGGGLFKPTDTLTLTCTASGFDISSYYMSWVRQAPGNGLEWIGAIGISGNAYYASWAKSRSTITRNTNLNTVTLKMTSLTAADTATYFCARDHPTYGMDLWGPGTLVTVSSSYELTQLPSVSVSLGQTARITCEGNNIGSKAVHWYQQKPGLAPGLLIYDDDERPSGVPDRFSGSNSGDTATLTISGAQAGDEADYYCQVWDSSAYVFGGGTQLTVTG

percent of CAR-T cells with anti-ROR1 recognition: > 90%
B2: XBR1-402 chimeric antigen receptor with long spacer, on CD8+ T cells (protein, part only; not given: scFv linker, spacer, signaling parts, not shown: large carriers)
scFv, part: B1 scFv, part
